Data as given in patent publication US20240010723A1 (IBEX BIOSCIENCES, published 2024).

T1: Murine CD147 (Uniprot P18572), recombinant protein (murine (mouse), UniProt P18572 22-325, limits assumed)
T1 construct: also called mCD147; mouse CD147
T1 sequence: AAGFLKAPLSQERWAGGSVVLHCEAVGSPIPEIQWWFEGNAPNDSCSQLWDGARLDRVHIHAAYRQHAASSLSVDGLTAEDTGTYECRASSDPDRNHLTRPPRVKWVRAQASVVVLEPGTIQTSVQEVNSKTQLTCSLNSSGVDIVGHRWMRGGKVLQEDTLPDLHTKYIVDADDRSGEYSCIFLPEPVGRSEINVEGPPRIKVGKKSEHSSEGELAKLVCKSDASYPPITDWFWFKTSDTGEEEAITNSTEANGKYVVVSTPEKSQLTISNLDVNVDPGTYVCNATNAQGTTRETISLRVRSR

T2: Human CD147 (Uniprot P35613), recombinant protein (UniProt P35613 138-325)
T2 chain: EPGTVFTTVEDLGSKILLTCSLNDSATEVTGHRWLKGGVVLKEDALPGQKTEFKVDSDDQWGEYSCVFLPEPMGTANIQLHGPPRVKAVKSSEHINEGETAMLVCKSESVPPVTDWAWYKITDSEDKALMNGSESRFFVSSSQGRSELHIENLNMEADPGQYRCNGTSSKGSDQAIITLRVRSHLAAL

T3: Human CD147 (Uniprot P35613), recombinant protein (human, UniProt P35613 138-325)
T3 construct: also called recombinant CD147; CD147 protein
T3 sequence: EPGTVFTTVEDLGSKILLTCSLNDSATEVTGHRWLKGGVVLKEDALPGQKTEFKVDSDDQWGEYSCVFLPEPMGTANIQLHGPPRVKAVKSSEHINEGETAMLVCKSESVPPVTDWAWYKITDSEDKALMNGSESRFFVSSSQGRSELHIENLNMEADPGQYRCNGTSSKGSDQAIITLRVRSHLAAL

B1: Ibx-76 (dimer of Ibx-13) (VHH)
chain: QVQLVESGGGLVQPGGSLRLSCTASEDTFSTYAIGWFRQAPGQGREFVAGITANGIATRYNDSLKDRFTISRDNAKNTVYLQMNSLQPEDTAVYSCGADTRRFSLPSTVHEIDYWGQGTQVTVSSEPKIPQPQPKPQPQPQPQPQPKPQPEPQVQLVESGGGLVQPGGSLRLSCTASEDTFSTYAIGWFRQAPGQGREFVAGITANGIATRYNDSLKDRFTISRDNAKNTVYLQMNSLQPEDTAVYSCGADTRRFSLPSTVHEIDYWGQGTQVTVSS
notes: Tandem bivalent VhH without Fc; not shown: Flag tag, since detection was with anti-flag
B2: Ibx-74 (dimer of Ibx-11) (VHH)
chain: QVRLEESGGGLVQAGGSLRLSCAASGLAFSIYGMGWFRQAPGKEREFVSVVDNTGSTTLYADSVKGRFTISRDNAKNTVYLQMSSLEPEDTAVYYCGAGPKNYLGSHEYAYWGQGTQVTVSSEPKIPQPQPKPQPQPQPQPQPKPQPEPQVRLEESGGGLVQAGGSLRLSCAASGLAFSIYGMGWFRQAPGKEREFVSVVDNTGSTTLYADSVKGRFTISRDNAKNTVYLQMSSLEPEDTAVYYCGAGPKNYLGSHEYAYWGQGTQVTVSS
notes: Tandem bivalent VhH
B3: Ibx-77 (dimer of Ibx-14) (VHH, not shown: small tags and cut ends)
chain: QVQLVESGGGLVQAGDSLTLSCAASGRSLSSNAMGWFRQAPGKEREFVSGTTWHAGTQYYAYAADSVKGRFTTSRDNANTVSLQMKRLKPEDTAVYYCAAAVSGPGYDSWGQGTQVTVSSEPKIPQPQPKPQPQPQPQPQPKPQPEPQVQLVESGGGLVQAGDSLTLSCAASGRSLSSNAMGWFRQAPGKEREFVSGTTWHAGTQYYAYAADSVKGRFTTSRDNANTVSLQMKRLKPEDTAVYYCAAAVSGPGYDSWGQGTQVTVSS
notes: Tandem bivalent VhH without Fc
B4: Ibx-75 (dimer of Ibx-12) (VHH)
chain: QVRLVESGGGLVQAGDSLRLSCQASGGTFTTYAMGWFRQAPGQEREFVSATTWSTGTSYYAYAADSVKGRFTTSRDNDNTVTLTMKRLKPDDTAVYYCSADPDGSDWAHSARQLRYWGQGTQVTVSSEPKIPQPQPKPQPQPQPQPQPKPQPEPQVRLVESGGGLVQAGDSLRLSCQASGGTFTTYAMGWFRQAPGQEREFVSATTWSTGTSYYAYAADSVKGRFTTSRDNDNTVTLTMKRLKPDDTAVYYCSADPDGSDWAHSARQLRYWGQGTQVTVSS
notes: Tandem bivalent VhH without Fc; also called tandem bivalent Ibx-75; not shown: Flag tag, since detection was with anti-flag

Tests used:
[1] = biological target: T1, Murine CD147 (Uniprot P18572), …; test: ELISA, 100 ng murine CD147 coated, anti-flag detection
Procedure: For the ELISA, 100 ng of murine CD147 was coated onto Nunc polysorb plates overnight in 1× coating buffer. The wells were washed once with TBST (0.01% tween 20) and then blocked for 1 hour using 1× fishgel in TBST at room temperature (RT). Ibx-11, Ibx-13, Ibx-75, Ibx-76, Ibx-77, and anti-HIS antibody was incubated at 0.01-100 ng/well in 100 μl for 1 hour at RT before being washed 3× for 5 min each wash. The wells were incubated with anti-human for Ibx-11 & Ibx-13 treated wells and with anti-flag for Ibx-77, Ibx-75, Ibx-76 treated wells at 1:1000 dilution for 1 hour RT, and then washed 3× for 5 min each wash. The wells were incubated with 100p/Well of TMBE for 30 minutes and the reaction was stopped with 100p/Well of 2N sulphuric acid. Optical Density (OD) was measured using Biotek synergy 4 instrument for quantification.

[2] = biological target: T2, Human CD147 (Uniprot P35613), …; test: SPR
[3] = biological target: T3, Human CD147 (Uniprot P35613), …; test: SPR sensorgram, partly purified sample injected on a sensor chip; the chip's ligand is not stated
Procedure: Approximately 45 μl of Ibx-74 and Ibx-75 at various stages of purification were provided; 35 μl of each sample was injected on a sensor chip and sensograms were collected. The flow rate was 10 μ/minute, and the chip was regenerated with 10 mM Glycine at pH 1.5.

[4] = biological target: T3, Human CD147 (Uniprot P35613), …; test: SPR, CD147 injected as analyte at 0-900 nM, kinetic model
Procedure: (§1) For this assay, CD147 was injected in HBS-EP buffer pH7.4 at concentrations ranging from 0 nM to 900 nM at 10 μl/min for 600 Seconds. Duplicate CD147 injections were carried out for 0, 9.22, […], 23.04, 57.6, 144, 360, 900 nM (a 2.5-fold dilution series). The chip surface was regenerated using 10 mM Glycine pH 2.0 @ 10 μl/min for 180 sec.
(§2) One technical replicate of 0 nm & 23.04 nM was excluded from analysis due to sudden air spikes and DIPs during analyte injection. Data were analyzed in Q-Dat software provided by instrument manufacturer. A steady state 1:1 fitting model (FIG. 4) was used for initial steady state binding analysis, and a simple Kd/Ka kinetic model (FIG. 5) was used to estimate KD.

[5] = biological target: T3, Human CD147 (Uniprot P35613), …; test: SPR, CD147 injected as analyte at 0-900 nM, steady state 1:1 fit
Procedure: as §1, §2

[6] = biological target: T2, Human CD147 (Uniprot P35613), …; test: SPR; kinetic model; Ibx-77 injected over immobilized CD147
[7] = biological target: T2, Human CD147 (Uniprot P35613), …; test: SPR; steady state 1:1 fit; Ibx-77 injected over immobilized CD147

Binder	binding result [1]	Kd [2] [pM]	koff [3] [s⁻¹]	Kd [4] [nM]	koff [4] [s⁻¹]	kon [4] [M⁻¹ s⁻¹]	Kd [5] [nM]	Kd [6] [nM]	Kd [7] [nM]
B1	no binding (tested: 0.01-100 ng/well)	–	–	–	–	–	–	–	–
B2	–	13.9	3e-05	–	–	–	–	–	–
B3	no binding (tested: 0.01-100 ng/well)	–	–	36.1	0.000489	13300	138	0.335	10.8
B4	no binding (tested: 0.01-100 ng/well)	0.428	1e-06	–	–	–	–	–	–
